# Patent US20240093191A1, “COMPOSITIONS AND METHODS FOR TREATING DISEASE ASSOCIATED WITH DUX4 OVEREXPRESSION” (RESEARCH INSTITUTE AT NATIONWIDE CHILDREN'S HOSPITAL, priority 2021, published 2024)
# Legend:
# DUX4-mir-675Res = experiment: Western blot against mir-675-resistant DUX4 construct (CMV.DUX4-mir-675Res) in HEK293 cells; assay type: cell-based, human; details: FIG. 20; blinded western blot
# From the text: Sequence Generation and Cloning. All miRNAs used in this study were designed as previously reported in [Wallace et al., Mol. Ther. Methods Clin. Dev. 8:121-130 (2018)]. All miDUX4s were cloned into the mir-30 based/U6 construct as previously described [Wallace et al., Mol. Ther. 20:1417-23 (2012)]. MicroRNA-675 sequence was obtained from the miRBase database (www.mirbase.org), and all mir-675 constructs used in this study were cloned into an expression plasmid downstream of an RNA polymerase III class of promoters (U6 or H1 promoters). The sequence of the stem loop structure of mir-675, mir-675-5p and mir-675-3p constructs is shown in FIG. 17A-B. The CMV.H19 construct was purchased from OriGene. The psi2-DUX4FI was PCR amplified using the AAV.CMV.DUX44V5 construct as template, and the following primers: forward primer: […] (SEQ ID NO: 127), and reverse primer: […] (SEQ ID NO: 128). The PCR product was then cloned into a previously designed psicheck2 (psi2) SD5 mutant (Renilla luciferase have the SD5 mutant) plasmid [Ansseau et al., Plos One 10: e0118813 (2015)] using XhoI/SpeI restriction sites and the psi2.SD5 mutant-DUX4 3′UTR plasmid backbone. […] In addition, this plasmid contains a cytomegalovirus promoter (CMVp)-driven DUX4 full-length sequence encompassing the DUX4 open reading frame (DUX4 ORF), the DUX4 3′UTR sequence (pLAM sequence). […]
# mir-675-5p = experiment: Small-transcript northern blot of mir-675 processing in HEK293 cells; assay type: cell-based, human; details: for mature mir-675-5p bands on northern blot: HEK293, anti-mir-675-5p biotinylated probe
# From the text: Small-Transcript Northern Blots. […] (SEQ ID NO: 148)).
molecule,measurement,setting,value
H1.mir-675: commercially available H1 promoter mir-675 expression plasmid (SBI Biosciences) (nucleic acid) DNA: GAACGCTGACGTCATCAACCCGCTCCAAGGAATCGCGGGCCCAGTGTCACTAGGCGGGAACACCCAGCGCGCGTGCGCCCTGGCAGGAAGATGGCTGTGAGGGACAGGGGAGTGGCGCCCTGCAATATTTGCATGTCGCTATGTGTTCTGGGAAATCACCATAAACGTGAAATGTCTTTGGATTTGGGAATCTTATAAGTTCTGTATGAGACCACCCCCCAGGGTCTGGTGCGGAGAGGGCCCACAGTGGACTTGGTGACGCTGTATGCCCTCACCGCTCAGCCCCTGGGGAATTCTTCGATTCTGCTTTTTT,effect on DUX4 protein level of mir-675-resistant DUX4 construct,DUX4-mir-675Res,not able to reduce DUX4 protein level
same,mature mir-675-5p produced at 48h versus 24h post-transfection,mir-675-5p,1.4 fold
same,mature mir-675-5p abundance relative to U6.mir-675-generated,mir-675-5p; 24 h post-transfection,13 fold
same,mature mir-675-5p abundance relative to U6.mir-675-generated,mir-675-5p; 48 h post-transfection,23 fold
same,mature mir-675-5p bands on northern blot,mir-675-5p,abundant levels of the mature mir-675-5p
U6.mir-675: U6 promoter-driven mir-675 expression plasmid with 40 nt 5' and 47 nt 3' flanking sequences (nucleic acid) DNA: GACGCCGCCATCTCTAGGCCCGCGCCGGCCCCCTCGCACAGACTTGTGGGAGAAGCTCGGCTACTCCCCTGCCCCGGTTAATTTGCATATAATATTTCCTAGTAACTATAGAGGCTTAATGTGCGATAAAAGACAGATAATCTGTTCTTTTTAATACTAGCTACATTTTACATGATAGGCTTGGATTTCTATAAGAGATACAAATACTAAATTATTATTTTAAAAAACAGCACAAAAGGAAACTCACCCTAACTGTAAAGTAATTGTGTGTTTTGAGACTATAAATATCCCTTGGAGAAAAGCCTTGTTTGCGTTTAGTGAACCGTCAGATGGTACCGTTTAAACTCGAGCCCAGGGTCTGGTGCGGAGAGGGCCCACAGTGGACTTGGTGACGCTGTATGCCCTCACCGCTCAGCCCCTGGGACTAGAGCGGCCGCCACAGCGGGGAGATCCAGACATGATAAGATACATTTTTT,effect on DUX4 protein level of mir-675-resistant DUX4 construct,DUX4-mir-675Res,not able to reduce DUX4 protein level
same,mature mir-675-5p bands on northern blot,mir-675-5p,low levels of the mature mir-675-5p
